No end group written: not given here. *: point of attachment. Biotin = O=C1N[C@H]2[C@H](CS[C@H]2CCCCC(=O)*)N1
T1: CD177 ECD-Fc (CD177 extracellular domain with Fc tag) (UniProt Q8N6Q3 22-408, limits assumed)
T1 construct: extracellular domain; also called CD177-Fc; recombinant CD177 ECD; not shown: Fc tag
T1 sequence (looked up): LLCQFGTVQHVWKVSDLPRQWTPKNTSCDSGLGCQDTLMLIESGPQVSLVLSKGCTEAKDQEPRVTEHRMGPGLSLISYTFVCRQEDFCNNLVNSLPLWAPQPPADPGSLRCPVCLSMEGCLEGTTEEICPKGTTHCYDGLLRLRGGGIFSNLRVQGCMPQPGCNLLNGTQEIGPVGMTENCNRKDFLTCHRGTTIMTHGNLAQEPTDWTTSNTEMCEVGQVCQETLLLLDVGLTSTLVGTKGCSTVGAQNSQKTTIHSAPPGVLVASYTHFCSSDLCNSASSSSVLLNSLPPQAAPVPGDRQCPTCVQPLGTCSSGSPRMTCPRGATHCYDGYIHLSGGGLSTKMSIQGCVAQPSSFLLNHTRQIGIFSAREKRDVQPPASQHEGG


Assays:
[1] = target: CLEC10A expressed on transfected HEK293 cells (human) (UniProt Q8IUN9); test: flow cytometry, live HEK293 transfectants, 5 µg/mL probe in PBS+Ca2+/Mg2+, AF647 anti-human Fc
[2] = target: T1, CD177 ECD-Fc (CD177 extracellular …); test: ELISA, immobilized CD177 ECD-Fc, biotinylated peptide pre-incubated with HRP-streptavidin
Method: To evaluate the binding of aglycosylated hSMAGP ECD to CD177, an hSMAGP ECD peptide (H2N-[…]-Biotin-amide (SEQ ID NO: 62)) was chemically synthesized. An extra lysine residue was added to the C terminus to facilitate biotinylation. Another peptide, with a scrambled hSMAGP ECD sequence (H2N-[…]-Biotin-amide (SEQ ID NO: 63)), was synthesized as a control. Peptide binding to the recombinant CD177 ECD-Fc (CD177 extracellular domain with Fc tag) or hIgG1-Fc (IgG1 domain with Fc tag) negative control was evaluated in an enzyme-linked immunosorbent assay (ELISA). CD177 ECD-Fc and hIgG1-Fc were immobilized to separate Corning 96-well Clear Flat Bottom Polystyrene High Bind Microplates at 4° C. overnight in PBS. Plates were blocked using 5% skim milk. Biotinylated hSMAGP ECD peptide or the scrambled control (10 μg/ml) was pre-incubated with HRP-conjugated streptavidin (5 μg/ml) and added to the plates. In a control assay, an anti-CD177 antibody (Biolegend Cat #315802; 10 μg/ml) was premixed with the biotinylated SMAGP ECD peptide. The signal was developed using TMB substrate. The assay was performed in triplicate.

Sequence of CLEC10A expressed on transfected HEK293 cells (human) (Q8IUN9 whole entry, the tested form may be a part): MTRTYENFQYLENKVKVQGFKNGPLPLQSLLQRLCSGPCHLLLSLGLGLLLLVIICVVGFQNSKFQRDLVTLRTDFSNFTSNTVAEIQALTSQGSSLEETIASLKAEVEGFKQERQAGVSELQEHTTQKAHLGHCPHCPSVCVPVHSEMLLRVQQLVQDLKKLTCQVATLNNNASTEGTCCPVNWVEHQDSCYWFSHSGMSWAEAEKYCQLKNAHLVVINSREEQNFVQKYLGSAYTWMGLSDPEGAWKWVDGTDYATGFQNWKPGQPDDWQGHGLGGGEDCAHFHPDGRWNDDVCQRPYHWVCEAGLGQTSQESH

| fold change in median fluorescence intensity over control cells [1] [fold] | binding result [2] | Molecule |
| --- | --- | --- |
| 3.3 |  | hSMAGP ECD-hIgG1 Fc (Fc fusion) |
|  | no binding (tested: 10 µg/ml) | TRTTLIMESTTPALMLLEPLGSPQDAPTSTEEAPSLK(Biotin)-NH2 (N-terminus assumed; SMILES CC[C@H](C)[C@H](NC(=O)[C@H](CC(C)C)NC(=O)[C@@H](NC(=O)[C@@H](NC(=O)[C@H](CCCNC(=N)N)NC(=O)[C@@H](N)[C@@H](C)O)[C@@H](C)O)[C@@H](C)O)C(=O)N[C@@H](CCSC)C(=O)N[C@@H](CCC(=O)O)C(=O)N[C@@H](CO)C(=O)N[C@H](C(=O)N[C@H](C(=O)N1CCC[C@H]1C(=O)N[C@@H](C)C(=O)N[C@@H](CC(C)C)C(=O)N[C@@H](CCSC)C(=O)N[C@@H](CC(C)C)C(=O)N[C@@H](CC(C)C)C(=O)N[C@@H](CCC(=O)O)C(=O)N1CCC[C@H]1C(=O)N[C@@H](CC(C)C)C(=O)NCC(=O)N[C@@H](CO)C(=O)N1CCC[C@H]1C(=O)N[C@@H](CCC(N)=O)C(=O)N[C@@H](CC(=O)O)C(=O)N[C@@H](C)C(=O)N1CCC[C@H]1C(=O)N[C@H](C(=O)N[C@@H](CO)C(=O)N[C@H](C(=O)N[C@@H](CCC(=O)O)C(=O)N[C@@H](CCC(=O)O)C(=O)N[C@@H](C)C(=O)N1CCC[C@H]1C(=O)N[C@@H](CO)C(=O)N[C@@H](CC(C)C)C(=O)N[C@@H](CCCCNC(=O)CCCC[C@@H]1SC[C@@H]2NC(=O)N[C@@H]21)C(N)=O)[C@@H](C)O)[C@@H](C)O)[C@@H](C)O)[C@@H](C)O, Pre-incubated with HRP-conjugated streptavidin before addition to the plates; also called scrambled control) [aglycosylated scrambled hSMAGP ECD peptide] |

Source: US20260098070A1 (DEM BIOPHARMA, published 2026)
